Data set [1] concerns the target T1, thymidylate synthase (TS) (zebrafish, UniProt A0ACM8Q3Q5 1-318). The data set can be described thus: competition EMSA; vs 32P full-length TS mRNA; 37 C, 10 min; 100 ng TS (200 ng in Fig. 5B legend), 1 ng 32P TS mRNA; non-denaturing 5% acrylamide gel (60:1); binding buffer, salt and pH not given (cited ref. 16). The conditions noted are these: protein: recombinant; tags: His-tag removed by thrombin; chain copies: 2; hairpin (MFold), 6 nt loop. A general note: In EMSA bound probe runs differently from free probe, usually more slowly.

Data set [2] concerns the target T1, thymidylate synthase (TS). In words: EMSA; 100 ng TS; 37 C, 10 min; 100 ng TS (200 ng in Fig. 5B legend), 1 ng 32P TS mRNA; non-denaturing 5% acrylamide gel (60:1); binding buffer, salt and pH not given (cited ref. 16). Conditions: protein: recombinant, tags: His-tag removed by thrombin, chain copies: 2, hairpin (MFold).

T1 sequence (A0ACM8Q3Q5 entry or part of it): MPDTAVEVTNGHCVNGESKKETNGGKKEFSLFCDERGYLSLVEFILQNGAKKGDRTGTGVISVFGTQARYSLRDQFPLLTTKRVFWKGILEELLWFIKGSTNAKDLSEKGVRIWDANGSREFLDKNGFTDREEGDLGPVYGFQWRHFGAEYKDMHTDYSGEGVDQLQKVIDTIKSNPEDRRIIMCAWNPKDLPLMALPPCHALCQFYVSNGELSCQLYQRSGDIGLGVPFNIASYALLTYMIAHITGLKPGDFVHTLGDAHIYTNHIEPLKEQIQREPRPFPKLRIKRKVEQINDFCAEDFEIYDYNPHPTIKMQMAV

Usually IC50 stands for the concentration that gives 50% inhibition. With CUCUUGUUGUGCUGCAGGAU (structured_RNA) [TS:N20 (TS13-32)], the IC50 in data set [1] came out at 620 ± 200 pM.
With CUCUUGUUGUAAAGCAGGAU (structured_RNA) [Δ20-23-TS RNA (Δ20-22 in Table 1)], the binding result in data set [2] (4 nt loop) is given as “no binding”.
Take CUCUUGUUGUGCAGGAU (structured_RNA) [Δ20-TS RNA]: in data set [2], the binding result is “no binding”.
Regarding CUCUUCAUGUGCUGCAGGAU (structured_RNA) [Δ20-18-TS RNA], the binding result in data set [2] (5 nt loop) is “no binding”.
